According to PMC4004597 (Molecular Biology of the Cell, 2014):

T1: R. norvegicus Nup62 (aa 322–525), entire predicted α-helical part (R. norvegicus, UniProt P17955 322-525)
T1 sequence: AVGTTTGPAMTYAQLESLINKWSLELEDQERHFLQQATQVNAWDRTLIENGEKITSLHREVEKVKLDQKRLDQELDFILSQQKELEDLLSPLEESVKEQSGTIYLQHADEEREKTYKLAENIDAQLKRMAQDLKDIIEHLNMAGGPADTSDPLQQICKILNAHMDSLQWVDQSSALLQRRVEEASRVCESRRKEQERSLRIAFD

T2: R. norvegicus Nup54 of the published Nup58-Nup54 crystal construct (aa 456–494) (R. norvegicus, UniProt P70582 456-494)
T2 chain: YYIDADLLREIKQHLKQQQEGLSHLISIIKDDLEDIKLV

B1: R. norvegicus Nup54 (aa 346–494), entire predicted α-helical part (domain or fragment)
chain: MTKQHQTRLDIISEDISELQKNQTTTMAKIAQYKRKLMDLSHRTLQVLIKQEIQRKSGYAIQAEEEQLRVQLDTIQGELNAPTQFKGRLNELMSQIRMQNHFGAVKSEEKYYIDADLLREIKQHLKQQQEGLSHLISIIKDDLEDIKLV

Tests used:
AUC = target: the molecule itself; assay: AUC
[1] = target: T1, R. norvegicus Nup62 (aa 322–525), …; assay: SEC
[2] = target: B1; assay: SEC
[3] = target: T2, R. norvegicus Nup54 of the published …; assay: AUC

Binder | Kd (AUC) [µM] | stoichiometry N [2] | further results
long rnNup58-Nup54-Nup62 complex (complex) chain 1: not shown chain 2: MTKQHQTRLDIISEDISELQKNQTTTMAKIAQYKRKLMDLSHRTLQVLIKQEIQRKSGYAIQAEEEQLRVQLDTIQGELNAPTQFKGRLNELMSQIRMQNHFGAVKSEEKYYIDADLLREIKQHLKQQQEGLSHLISIIKDDLEDIKLV chain 3: AVGTTTGPAMTYAQLESLINKWSLELEDQERHFLQQATQVNAWDRTLIENGEKITSLHREVEKVKLDQKRLDQELDFILSQQKELEDLLSPLEESVKEQSGTIYLQHADEEREKTYKLAENIDAQLKRMAQDLKDIIEHLNMAGGPADTSDPLQQICKILNAHMDSLQWVDQSSALLQRRVEEASRVCESRRKEQERSLRIAFD | 52 | – | –
B1 | – | – | stoichiometry N [1]: 1
short rnNup58-Nup54-Nup62 complex (complex) chain 1: APADYFRVLVQQFEVQLQQYRQQIEELENHLATQANNSHITPQDLSMAMQKIYQTFVALAAQLQSIHENVKVLKEQYLSYRKMFLGDAG chain 2: MTKQHQTRLDIISEDISELQKNQTTTMAKIAQYKRKLMDLSHRTLQVLIKQEIQRKSGYAIQAEEEQLRVQLDTIQGELNAPTQFKGRLNELMSQIRMQNHFGAVKSEEKYYIDADLLREIKQHLKQQQEGLSHLISIIKDDLEDIKLV chain 3: AVGTTTGPAMTYAQLESLINKWSLELEDQERHFLQQATQVNAWDRTLIENGEKITSLHREVEKVKLDQKRLDQELDFILSQQKELEDLLSPLEESVKEQSGTIYLQHADEEREKTYKLAENIDAQLKRMAQDLKDIIEHLNMAGGPADTSDPLQQICKILNAHMDSLQWVDQSSALLQRRVEEASRVCESRRKEQERSLRIAFD | 49.3 | – | –
R. norvegicus Nup58 (aa 327–415), N-terminally truncated (domain or fragment) APADYFRVLVQQFEVQLQQYRQQIEELENHLATQANNSHITPQDLSMAMQKIYQTFVALAAQLQSIHENVKVLKEQYLSYRKMFLGDAG | – | 1 | –
R. norvegicus Nup58 (aa 239–415), entire predicted α-helical part (domain or fragment) not shown | – | 1 | –
R. norvegicus Nup58 of the published Nup58-Nup54 crystal construct (aa 327–412) (domain or fragment) APADYFRVLVQQFEVQLQQYRQQIEELENHLATQANNSHITPQDLSMAMQKIYQTFVALAAQLQSIHENVKVLKEQYLSYRKMFLG | – | – | stoichiometry N [3]: 2 Nup58:Nup54
